Source: PMC8229956

Tests used:
[1] = molecular target: Oryza sativa TIR1 wild type with nuclear localisation signal (OsTIR1^WT-NLS) (Oryza sativa)
[2] = molecular target: Oryza sativa TIR1 wild type with nuclear localisation signal (OsTIR1^WT-NLS) (Oryza sativa); remark: listed apart in the source

Row | reduction in Rad52-AID-V5 protein level (anti-V5 immunoblot of total extract, normalised to tubulin) in cells expressing OsTIR1^WT in the absence of NAA, against rad52-AID-V5 cells with no OsTIR1 [1] [%] | reduction in Mcm4-AID-V5 protein level (anti-V5 immunoblot of total extract, normalised to tubulin) in cells expressing OsTIR1^WT in the absence of NAA, against cells with no OsTIR1 [2] [%] | Substance
1 | 14 |  | Rad52-AID-V5 (from UniProt P93830 1-229)
2 |  | 14 | Mcm4-AID-V5 (from UniProt P93830 1-229)
